# Laboratory results from patent publication US20240025965A1 (UNIVERSITEIT TWENTE, published 2024).
# Primed or numbered codes have the meaning given here. Where no end group is shown, it is not given here. Side-chain parts run from the residue outwards. PEG(6) = PEG(6) linker
# T1: ITGA11 on human stellate cells (LX2 hepatic stellate cells; primary pancreatic stellate cells) (human, UniProt Q9UKX5 23-1188)
# T1 construct: whole, on cells; For the pancreatic stellate cells the target is only implied; also called ITGA11-expressing hepatic stellate cells; ITGA11 expressing LX2 cells
# T1 sequence (looked up): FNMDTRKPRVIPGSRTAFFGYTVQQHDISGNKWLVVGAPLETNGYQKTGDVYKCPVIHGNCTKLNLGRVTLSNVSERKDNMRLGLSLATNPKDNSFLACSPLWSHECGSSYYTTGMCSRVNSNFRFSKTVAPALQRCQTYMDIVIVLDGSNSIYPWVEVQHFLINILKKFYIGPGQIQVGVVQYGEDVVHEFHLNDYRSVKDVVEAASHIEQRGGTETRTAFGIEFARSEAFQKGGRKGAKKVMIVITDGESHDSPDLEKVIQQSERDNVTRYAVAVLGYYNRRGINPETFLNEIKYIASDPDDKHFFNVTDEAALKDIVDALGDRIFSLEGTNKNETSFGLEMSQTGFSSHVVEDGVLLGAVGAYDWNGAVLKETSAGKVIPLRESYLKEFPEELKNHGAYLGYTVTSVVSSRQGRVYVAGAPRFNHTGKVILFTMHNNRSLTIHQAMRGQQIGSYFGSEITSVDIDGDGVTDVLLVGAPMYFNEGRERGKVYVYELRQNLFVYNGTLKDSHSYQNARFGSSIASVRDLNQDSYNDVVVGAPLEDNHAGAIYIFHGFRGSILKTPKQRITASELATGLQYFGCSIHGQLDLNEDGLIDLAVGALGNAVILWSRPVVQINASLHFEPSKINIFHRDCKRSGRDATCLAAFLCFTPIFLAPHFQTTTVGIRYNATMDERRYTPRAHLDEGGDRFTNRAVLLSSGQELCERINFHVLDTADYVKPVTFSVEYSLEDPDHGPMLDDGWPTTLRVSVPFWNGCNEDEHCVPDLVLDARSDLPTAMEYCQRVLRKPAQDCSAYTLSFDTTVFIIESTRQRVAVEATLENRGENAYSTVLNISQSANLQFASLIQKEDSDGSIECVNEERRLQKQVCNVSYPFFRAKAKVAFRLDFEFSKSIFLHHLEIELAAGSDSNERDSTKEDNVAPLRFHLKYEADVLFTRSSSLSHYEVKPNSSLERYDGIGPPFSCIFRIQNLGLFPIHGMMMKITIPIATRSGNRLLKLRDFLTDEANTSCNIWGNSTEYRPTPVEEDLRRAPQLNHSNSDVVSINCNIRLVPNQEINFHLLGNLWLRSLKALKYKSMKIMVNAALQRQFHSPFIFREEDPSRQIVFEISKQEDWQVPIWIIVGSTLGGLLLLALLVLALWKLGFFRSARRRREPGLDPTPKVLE
# Assays:
# rhIntegrin α11β1 [1] = biological target: T2, rhIntegrin α11β1 (human, UniProt Q9UKX5 23-1141; P05556 21-728, limits assumed); test: phage ELISA on coated rhIntegrin α11β1, HRP-anti-M13 antibody, read at 490 nm; control coatings rhIntegrin α4β1 (Bar 2) and no coating (Bar 3); one phage dose, no concentration given
# T2 construct: Bought from R&D Systems; also called α11β1 receptor; ITGA11 receptor
# Description: For each clone, 20 mL of LB medium was inoculated with ER2738 and incubated at 37° C. until slightly turbid. Single plaque of phages were inoculated to each culture and then incubated at 37° C. with vigorous aeration for 4.5 hours. The cultures were transferred to a fresh centrifuge tube and centrifuged for 10 minutes at 10,000 rpm. The upper 80% of the supernatant was transferred to a fresh tube and precipitated with PEG/NaCl twice. Then the pellet was suspended in 250 μL TBS. The 96-well ELISA plate was coated with 100 μL of 1 μg/mL target in coating buffer and incubated at 4° C. overnight. Then, the plate was washed once with the washing buffer (0.1% TWEEN® in TBS). All wells were blocked with 250 μL of blocking buffer at 4° C. for 1-2 hours. Then, the plate was washed 6 times with the washing buffer and slapping on a paper towel to remove excess buffer. Thereafter, 100 μL of phage virions was added per well. In competitive phage ELISA, competitive antigen was mixed with phages in washing buffer and added to the wells and incubated at room temperature for 1-2 hours with agitation. The plate was washed 6 times with washing buffer. HRP-conjugated anti-M13 antibody (GE healthcare, 1:5000 in blocking buffer) was added to each well and incubated at room temperature for 1 hour with agitation. […] The plates were read using a microplate reader at 490 nm.
# Target sequence in this assay (P05556 21-728 limits assumed, chain 2 of 2, one chain of several): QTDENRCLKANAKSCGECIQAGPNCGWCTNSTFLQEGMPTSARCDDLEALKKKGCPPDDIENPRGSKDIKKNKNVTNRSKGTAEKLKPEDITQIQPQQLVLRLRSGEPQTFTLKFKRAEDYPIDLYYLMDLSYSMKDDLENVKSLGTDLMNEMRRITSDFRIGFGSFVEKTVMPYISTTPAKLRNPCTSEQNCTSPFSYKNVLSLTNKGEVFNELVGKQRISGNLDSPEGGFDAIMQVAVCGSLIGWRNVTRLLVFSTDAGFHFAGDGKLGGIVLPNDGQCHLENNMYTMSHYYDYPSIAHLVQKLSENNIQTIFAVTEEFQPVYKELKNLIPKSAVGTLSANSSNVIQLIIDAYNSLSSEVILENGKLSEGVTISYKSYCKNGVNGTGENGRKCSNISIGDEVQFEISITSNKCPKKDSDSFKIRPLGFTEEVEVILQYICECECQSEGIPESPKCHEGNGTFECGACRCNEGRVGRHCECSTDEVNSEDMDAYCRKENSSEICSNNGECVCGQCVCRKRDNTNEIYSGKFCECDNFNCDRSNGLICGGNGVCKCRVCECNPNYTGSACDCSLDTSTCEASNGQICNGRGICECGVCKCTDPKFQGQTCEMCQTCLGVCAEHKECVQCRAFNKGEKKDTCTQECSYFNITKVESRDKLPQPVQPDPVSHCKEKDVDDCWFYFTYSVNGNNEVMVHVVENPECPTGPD
# [2] = biological target: T3, human recombinant receptor αvβ3 (human, UniProt P06756 31-992; P05106 27-718, limits assumed); test: microscale thermophoresis, 1 µM labelled peptide
# T3 construct: also called irrelevant receptor of the integrin family
# T3 sequence (P06756 31-992 limits assumed, chain 1 of 2): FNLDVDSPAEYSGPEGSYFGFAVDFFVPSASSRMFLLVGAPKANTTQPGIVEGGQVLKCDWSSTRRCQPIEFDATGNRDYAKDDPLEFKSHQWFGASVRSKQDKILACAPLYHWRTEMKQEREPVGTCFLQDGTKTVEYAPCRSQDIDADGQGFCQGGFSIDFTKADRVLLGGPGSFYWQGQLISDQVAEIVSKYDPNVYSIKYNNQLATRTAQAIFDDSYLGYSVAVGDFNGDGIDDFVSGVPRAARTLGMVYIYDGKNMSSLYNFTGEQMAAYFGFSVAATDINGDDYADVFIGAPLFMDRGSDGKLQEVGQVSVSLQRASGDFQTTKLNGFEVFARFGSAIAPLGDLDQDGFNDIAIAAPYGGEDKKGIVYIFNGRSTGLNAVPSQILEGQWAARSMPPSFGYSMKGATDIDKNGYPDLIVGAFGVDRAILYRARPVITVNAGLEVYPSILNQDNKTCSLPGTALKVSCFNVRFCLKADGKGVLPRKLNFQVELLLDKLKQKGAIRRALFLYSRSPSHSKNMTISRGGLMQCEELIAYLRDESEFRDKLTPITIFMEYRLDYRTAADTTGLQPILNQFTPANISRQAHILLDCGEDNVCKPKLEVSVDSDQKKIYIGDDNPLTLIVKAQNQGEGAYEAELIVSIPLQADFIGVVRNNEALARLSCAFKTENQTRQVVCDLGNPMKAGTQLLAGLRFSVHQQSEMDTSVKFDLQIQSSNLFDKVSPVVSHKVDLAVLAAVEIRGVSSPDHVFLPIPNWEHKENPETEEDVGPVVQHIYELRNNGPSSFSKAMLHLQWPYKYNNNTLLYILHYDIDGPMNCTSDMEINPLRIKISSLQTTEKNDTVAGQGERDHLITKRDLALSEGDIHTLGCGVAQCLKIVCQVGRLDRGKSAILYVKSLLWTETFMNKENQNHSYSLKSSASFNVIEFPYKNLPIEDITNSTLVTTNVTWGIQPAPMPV
# T3 sequence (P05106 27-718 limits assumed, chain 2 of 2): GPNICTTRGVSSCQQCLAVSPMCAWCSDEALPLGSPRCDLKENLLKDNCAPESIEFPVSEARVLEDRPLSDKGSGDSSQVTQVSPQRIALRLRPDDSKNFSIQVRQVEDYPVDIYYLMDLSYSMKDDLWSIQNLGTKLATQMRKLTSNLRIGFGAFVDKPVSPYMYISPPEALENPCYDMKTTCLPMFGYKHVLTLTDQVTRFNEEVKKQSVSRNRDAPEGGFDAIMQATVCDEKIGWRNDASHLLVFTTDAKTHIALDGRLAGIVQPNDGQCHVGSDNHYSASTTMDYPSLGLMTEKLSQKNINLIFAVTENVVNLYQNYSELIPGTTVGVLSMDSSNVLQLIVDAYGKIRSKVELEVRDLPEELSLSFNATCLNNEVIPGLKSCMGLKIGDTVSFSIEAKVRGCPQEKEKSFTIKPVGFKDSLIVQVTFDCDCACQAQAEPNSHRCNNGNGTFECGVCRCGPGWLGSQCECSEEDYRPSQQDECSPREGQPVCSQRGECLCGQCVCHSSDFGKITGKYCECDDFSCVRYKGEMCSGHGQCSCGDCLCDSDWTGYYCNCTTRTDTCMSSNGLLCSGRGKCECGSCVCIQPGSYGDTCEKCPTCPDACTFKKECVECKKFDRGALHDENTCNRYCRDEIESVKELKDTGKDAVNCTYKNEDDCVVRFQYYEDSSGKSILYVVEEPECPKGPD
# Description: (§1) Fluorescent labeled peptide (AV3-PEG(6)-5FAM or AXI-I-PEG(6)-FITC) (1 μM) was incubated with different concentrations of a human recombinant receptor (i.e., α5β1, α11β1 or αvβ3) for 10 minutes in Eppendorf tubes. The mixture of peptide and receptor was loaded in to NT.115™ hydrophilic glass capillaries. In order to find the best thermophoretic setting, the binding of peptide to the target receptor was examined at low (20%), middle (40%), and high (80%) MST power and all other binding experiments were performed using the same MST-settings. Finally, the dissociation constant (Kd) value was calculated from an average of three experiments.
# (§2) Fluorescent labeled peptides (AV3-PEG(6)-5FAM and AXI-I-PEG(6)-FITC) were examined for their binding affinities against α5β1 and α11β1 receptors, respectively using microscale thermophoresis (MST). MST allows peptides to interact with the receptors in solution phase. These peptides were also exposed to an irrelevant receptor of the integrin family αvβ3 and MST analyses were performed.
# [3] = biological target: T1, ITGA11 on human stellate cells (LX2 …); test: flow cytometry of AXI-I-PEG-FITC on suspended primary human pancreatic stellate cells, 1 hour at 4 °C
# Description: (§3) PSCs were trypsinized using trypsin-EDTA solution and cell numbers were diluted to 4×10⁴ cells/ml. Cells were incubated at 37° C. for 30 minutes to allow receptor recovery. Then different concentrations of AXI-I-FITC was added to the cells containing 2% FBS and incubated at 4° C. for 60 minutes. Thereafter, cells were centrifuged at 1500 rpm at 4° C. for 10 minutes. Supernatant was removed and cells were washed 3 times with PBS and then were fixed with 0.5% formaldehyde for 1 hour at 4° C. and measured with flow cytometry for fluorescence.
# (§4) Different concentrations of AXI-I-PEG-FITC was incubated with suspended PSCs for 1 hour at 4° C., washed and fixed with 0.5% formaldehyde and measured with flow cytometry. […] The 50% of the total binding, i.e., dissociation constant (kd) value was approximately 1 uM. Since the peptide has been modified with PEG chain and a fluorophore, the binding affinity of the peptide may be reduced due to steric hindrance.
# [4] = biological target: T4, α5β1 human recombinant protein (human, UniProt P08648 42-995; P05556 21-728); test: FITC-labelled peptide on coated α5β1 receptor in a 96-well plate, fluorescence intensity
# T4 construct: Bought from R&D Systems; also called α5β1 receptor; integrin α5β1
# T4 sequence (P08648 42-995 limits assumed, chain 1 of 2): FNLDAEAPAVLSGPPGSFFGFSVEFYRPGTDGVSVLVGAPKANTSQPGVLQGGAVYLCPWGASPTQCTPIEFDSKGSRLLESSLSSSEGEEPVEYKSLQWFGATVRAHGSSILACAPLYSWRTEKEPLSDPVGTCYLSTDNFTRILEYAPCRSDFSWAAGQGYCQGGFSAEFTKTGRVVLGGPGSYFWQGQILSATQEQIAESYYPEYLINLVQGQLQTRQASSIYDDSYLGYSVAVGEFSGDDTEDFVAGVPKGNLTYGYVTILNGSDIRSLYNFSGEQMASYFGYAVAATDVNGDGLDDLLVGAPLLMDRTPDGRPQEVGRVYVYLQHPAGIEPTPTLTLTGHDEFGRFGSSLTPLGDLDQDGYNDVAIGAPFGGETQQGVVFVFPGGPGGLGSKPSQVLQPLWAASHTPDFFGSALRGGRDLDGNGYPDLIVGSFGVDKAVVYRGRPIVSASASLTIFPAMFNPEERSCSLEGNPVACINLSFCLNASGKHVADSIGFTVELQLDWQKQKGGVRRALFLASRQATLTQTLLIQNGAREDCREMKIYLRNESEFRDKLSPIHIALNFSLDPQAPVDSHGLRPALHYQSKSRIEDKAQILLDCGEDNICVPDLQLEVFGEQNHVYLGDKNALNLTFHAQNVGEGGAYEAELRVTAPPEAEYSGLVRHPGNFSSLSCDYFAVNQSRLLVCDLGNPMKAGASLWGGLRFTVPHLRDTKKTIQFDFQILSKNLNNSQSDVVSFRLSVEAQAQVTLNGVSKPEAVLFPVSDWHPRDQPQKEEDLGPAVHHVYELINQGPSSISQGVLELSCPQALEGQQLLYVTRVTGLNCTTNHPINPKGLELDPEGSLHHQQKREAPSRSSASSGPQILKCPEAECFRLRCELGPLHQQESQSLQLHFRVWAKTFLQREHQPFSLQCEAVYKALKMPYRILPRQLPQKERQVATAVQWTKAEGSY
# T4 sequence (P05556 21-728 limits assumed, chain 2 of 2): as the sequence (P05556 21-728 limits assumed, chain 2 of 2, one chain of several) above
# Description: (§5) Purified ITGA11 receptor (α11β1; 100 μg/ml—stock; R&D systems) was diluted to 5 μg/ml with 1×PBS. 96-well ELISA White Maxisorb plate (Nunc) was coated with 50 μl of 5 μg/ml ITGA11 (or as control α5β1) receptor for overnight at 4° C. Then, wells were blocked for 3-4 hours with 200 μl of blocking buffer (1×PBS containing 5% BSA). Wells were washed three times with 200 μl of washing buffer (1×PBS containing 0.5% BSA and 0.05% TWEEN®-20). Peptides conjugated with FITC were diluted to different concentrations in washing buffer and then added to the plate and incubated at 37° C. for 1 hour. In addition, the binding of the peptide was blocked by co-incubation with 10× higher amount of unlabeled peptide. Subsequently, wells were washed three times with washing buffer. Then, 100 μl of 1×PBS was added and plates were read at 485 nm/520 nm with a fluorescence plate reader.
# [5] = biological target: T1, ITGA11 on human stellate cells (LX2 …); test: flow cytometry on suspended primary human pancreatic stellate cells, 1 hour at 4° C.; whole-cell binding on suspended primary human pancreatic stellate cells, 1 hour at 4° C., flow cytometry; PEG- and FITC-modified peptide
# Description: as §3, §4
# rhIntegrin α11β1 [6] = biological target: T2, rhIntegrin α11β1; test: microscale thermophoresis, 1 µM labelled peptide, receptor titrated, in solution
# Description: as §1, §2
# Target sequence in this assay (P05556 21-728 limits assumed, one chain of several): as the sequence (P05556 21-728 limits assumed, chain 2 of 2, one chain of several) above
# [7] = biological target: T4, α5β1 human recombinant protein; test: FITC-labelled peptide on coated α5β1 receptor in a 96-well plate, fluorescence intensity (counts)
# Description: (§6) The purified human recombinant α5β1 or α11β1 receptors (5 μg/ml in PBS) were coated onto 96-well ELISA plates (White Maxisorb-Nunc) by incubating overnight at 4° C. Then, the wells were blocked with blocking buffer (5% (w/v) BSA, 150 mM Nacl, 25 mM Tris) for 2 hours at room temperature. Then, the wells were washed three times with 200 μl of washing buffer (150 mM Nacl, 25 mM Tris-base, 0.005% TWEEN® 20, 0.5% BSA). Thereafter, the peptides conjugated with PEG(6)-FITC were diluted to different concentrations in washing buffer. For the competitive studies, the wells were co-incubated with 10-fold higher amount of unlabeled peptides. The plates were incubated at 37° C. for 60 minutes. Then, the wells were washed three times with washing buffer and subsequently, the plates were read for the fluorescein signal Ex/Em 485 nm/520 nm using a fluorescent plate reader (Perkin Elmer).
# (§7) Blocking of the peptide with 10-fold excess of unlabeled peptide blocked the binding of nAV2-PEG(6)-fluorescein. In addition, a new short peptide (RYYRITY (SEQ ID NO:8), called AV3) was also designed because seq. 3 and seq. 4 (see the sequences above) had “YYRITY” (SEQ ID NO:10) as common amino acids and the N-terminal of the seq. 4 was crucial for the binding to the receptor. […] Therefore, AV3 was selected to move with further studies.
# [8] = biological target: T4, α5β1 human recombinant protein; test: microscale thermophoresis, 1 µM labelled peptide with rising concentrations of the receptor in solution
# Description: as §1, §2
# [9] = biological target: T4, α5β1 human recombinant protein; test: microscale thermophoresis, 1 µM labelled peptide, receptor titrated, in solution
# Description: as §1, §2
# [10] = biological target: T3, human recombinant receptor αvβ3; test: as above
# Description: as §1, §2
# [11] = biological target: T4, α5β1 human recombinant protein; test: competition: unlabelled AV3 in excess against nAV2-FITC on coated α5β1 receptor, fluorescence intensity (counts)
# Description: as §6, §7
# rhIntegrin α11β1 [12] = biological target: T2, rhIntegrin α11β1; test: competition: unlabeled AXI-I in 10-fold excess against AXI-I-FITC on coated α11β1 receptor, fluorescence intensity
# Description: as §5
# Target sequence in this assay (P05556 21-728 limits assumed, chain 2 of 2, one chain of several): as above
binder,measurement,setting,value
SFATWTPNFERN (Whole phage virions in the phage ELISA; not shown: phage coat protein of the Ph.D.12 library) [Phage clone 27 displaying AXI-II],binding result,rhIntegrin α11β1 [1],binds
"SGLTEWLRWFNS (also: PEG(6)-FITC conjugated, site not given here, also called AXI-I-PEG-FITC; AXI-I-FITC) [AXI-I-PEG(6)-FITC]",binding result,[2],no binding
same,EC50 (read off the curve),[3],~1000 nM
same,binding result,[4],no binding (tested: 1.0 µM)
same,Kd,[5],~1000 nM
same,Kd,rhIntegrin α11β1 [6],149 nM
YYRITYGETGGNK([PEG(6)-fluorescein]) (also called nAV2-FITC; nAV2-PEG(6)-fluorescein) [FITC-labeled nAV2: YYRITYGETGGN-K-PEG(6)-Fluorescein],binding result,[7],binds
"SGLTEWLRWFNS (Whole phage virions in the phage ELISA; not shown: phage coat protein of the Ph.D.12 library) [Phage clones 11, 13, 14, 16, 19, 20, 21, 22, 24, 25, 28, 29, 30, 31 and 38 displaying AXI-I]",binding result,rhIntegrin α11β1 [1],binds
"RYYRITY (also: PEG(6)-5FAM conjugated, site not given here, also called AV3 peptide (fluorescent labeled)) [AV3-PEG(6)-5FAM]",EC50 (read off the curve),[8],~100 nM
same,Kd,[9],97.8 nM
same,Kd,[10],36100 nM
RYYRITY (Unlabelled; On the peptide microarray it is linked by its N-terminus to a glass slide through a PEG linker) [AV3 peptide RYYRITY],binding result,[11],binds
SGLTEWLRWFNS (Unlabelled peptide; On the peptide microarray it is linked by its N-terminus to a glass slide through a PEG linker; also called unlabeled AXI-I) [AXI-I peptide SGLTEWLRWFNS],binding result,rhIntegrin α11β1 [12],binds
